Reference: publication doi:10.1101/2023.04.18.537051 (bioRxiv, 2023)

T1: ribosomal protein bS1 of the M. smegmatis 70S ribosome (M. smegmatis (mc2155), UniProt A0QYY6 1-479)
T1 sequence: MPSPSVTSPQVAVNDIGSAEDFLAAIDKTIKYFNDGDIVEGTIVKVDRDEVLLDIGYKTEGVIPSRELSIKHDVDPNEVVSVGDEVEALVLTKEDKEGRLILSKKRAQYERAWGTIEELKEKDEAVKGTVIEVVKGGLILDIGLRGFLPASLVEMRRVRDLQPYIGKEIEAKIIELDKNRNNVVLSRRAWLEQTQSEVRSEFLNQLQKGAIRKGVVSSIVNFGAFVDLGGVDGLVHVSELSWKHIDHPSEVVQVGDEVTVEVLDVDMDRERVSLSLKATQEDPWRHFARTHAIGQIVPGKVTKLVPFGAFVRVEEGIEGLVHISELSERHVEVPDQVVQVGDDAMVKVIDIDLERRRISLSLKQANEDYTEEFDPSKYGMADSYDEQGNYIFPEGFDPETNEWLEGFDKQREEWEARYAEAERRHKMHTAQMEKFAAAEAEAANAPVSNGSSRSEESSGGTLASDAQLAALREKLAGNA

B1: ribosomal protein uS11 of the M. smegmatis 70S ribosome (natural protein)
chain: not shown
B2: ribosomal protein uS9 of the M. smegmatis 70S ribosome (natural protein)
chain: MTDVTETEVVTESAEPREPVIIDRPIQTVGRRKEAVVRVRLVPGTGQFNLDGRTLENYFPNKVHQQLIKAPLVTVDRVDQFDIYAHLDGGGPSGQAGALRLAIARALILVQPEDRPALKKAGFLTRDPRAIERKKYGLKKARKAPQYSKR
B3: ribosomal protein uS2 of the M. smegmatis 70S ribosome (natural protein)
chain: MAVVTMKQLLDSGAHFGHQTRRWNPKMKRFIFTDRNGIYIIDLQQTLTYIDKAYEFVKETVAHGGTVLFVGTKKQAQESIAEEATRVGMPYVNQRWLGGMLTNFSTVHKRLQRLKELEAMEQTGGFEGRTKKEILMLTREKNKLERSLGGIRDMQKVPSAVWVVDTNKEHIAVGEARKLGIPVIAILDTNCDPDVVDYPIPGNDDAIRSAALLTKVIASAVAEGLQARAGQGSGEKPAEGAEPLAEWEQELLAGATAGAADASAEGAAAPESSTDAS
B4: RafH (ribosome associated factor under hypoxia), M. smegmatis MSMEG_3935 (natural protein)
chain: MDVDVSTDGELPGAAEYAREKIGRLSRRAHRPVLHARVRLTRHGDPAVERPVIAQANLDVNGRQVRAQVEGVNAREAVDRLEARLRSRLERIAEHWEARRGGVPAEAGREWRHESEPARRPGYFPRPPEERRIIRRKSFSMVPCTVDEAALEMEMLDYDFHLFTEKGTGFAAVLYKGGPTGYRLVLVIPVPADELSPFEKPITISTHPAPCLTQRDAVERLGLLGLPFLFYIDAAEGRASVIYRRYDGHYGLITPADG

How the values were obtained:
[1] = target: B4; assay: cryo-EM structure
[2] = target: T1, ribosomal protein bS1 of the M. …; assay: cryo-EM structure

Row | Binder | binding result [1] | binding result [2]
1 | B1 | binds | –
2 | B2 | binds | –
3 | B3 | – | binds
4 | B4 | – | binds
